Test results published in publication PMC4525163, “Assembly-driven activation of the AIM2 foreign-dsDNA sensor provides a polymerization template for downstream ASC” (Nature Communications, 2015).

Tests used:
[1] = biological target: the molecule itself; test: negative-stain electron microscopy; dsDNA-free AIM2FL variants at 2 uM adsorbed to carbon grids, stained with 1% uranyl formate or uranyl acetate; filaments
[2] = biological target: the molecule itself; test: negative stain electron microscopy; purified protein incubated 30 min with λdsDNA (wild type also with supercoiled and nicked circular plasmids), 160 mM KCl; filament formation on dsDNA

Row | Protein | binding result [1] | binding result [2]
1 | E147A-AIM2FL (natural protein, UniProt O14862 1-343, looked up, AIM2 (absent-in-melanoma-2), full length, residues 1-343, with E147A in the HIN200 domain; source: E. coli ER2566, purified (amylose resin, HiTrap-SP, TEV cleavage, gel filtration); not shown: MBP, N-terminal, cleaved) MESKYKEILLLTGLDNITDEELDRFKFFLSDEFNIATGKLHTANRIQVATLMIQNAGAVSAVMKTIRIFQKLNYMLLAKRLQEEKEKVDKQYKSVTKPKPLSQAEMSPAASAAIRNDVAKQRAAPKVSPHVKPEQKQMVAQQESIRAGFQKRCLPVMVLKAKKPFTFETQEGKQEMFHATVATEKEFFFVKVFNTLLKDKFIPKRIIIIARYYRHSGFLEVNSASRVLDAESDQKVNVPLNIIRKAGETPKINTLQTQPLGTIVNGLFVVQKVTEKKKNILFDLSDNTGKMEVLGVRNEDTMKCKEGDKVRLTFFTLSKNGEKLQLTSGVHSTIKVIKAKKKT | binds | 
2 | T50A-AIM2FL (natural protein, UniProt O14862 1-343, looked up, AIM2 (absent-in-melanoma-2), full length, residues 1-343, with T50A in the PYD; source: E. coli ER2566, purified (amylose resin, HiTrap-SP, TEV cleavage, gel filtration); not shown: MBP, N-terminal, cleaved) MESKYKEILLLTGLDNITDEELDRFKFFLSDEFNIATGKLHTANRIQVAALMIQNAGAVSAVMKTIRIFQKLNYMLLAKRLQEEKEKVDKQYKSVTKPKPLSQAEMSPAASAAIRNDVAKQRAAPKVSPHVKPEQKQMVAQQESIREGFQKRCLPVMVLKAKKPFTFETQEGKQEMFHATVATEKEFFFVKVFNTLLKDKFIPKRIIIIARYYRHSGFLEVNSASRVLDAESDQKVNVPLNIIRKAGETPKINTLQTQPLGTIVNGLFVVQKVTEKKKNILFDLSDNTGKMEVLGVRNEDTMKCKEGDKVRLTFFTLSKNGEKLQLTSGVHSTIKVIKAKKKT | binds | 
3 | L10A-L11A-AIM2^FL (natural protein, UniProt O14862 1-343, looked up, AIM2 (absent-in-melanoma-2), residues 1-343, mutations in the PYD; Probably with the MBP tag removed as for wild-type AIM2^FL; source: E. coli ER2566, purified) MESKYKEILAATGLDNITDEELDRFKFFLSDEFNIATGKLHTANRIQVATLMIQNAGAVSAVMKTIRIFQKLNYMLLAKRLQEEKEKVDKQYKSVTKPKPLSQAEMSPAASAAIRNDVAKQRAAPKVSPHVKPEQKQMVAQQESIREGFQKRCLPVMVLKAKKPFTFETQEGKQEMFHATVATEKEFFFVKVFNTLLKDKFIPKRIIIIARYYRHSGFLEVNSASRVLDAESDQKVNVPLNIIRKAGETPKINTLQTQPLGTIVNGLFVVQKVTEKKKNILFDLSDNTGKMEVLGVRNEDTMKCKEGDKVRLTFFTLSKNGEKLQLTSGVHSTIKVIKAKKKT |  | binds
4 | Q258A-AIM2FL (natural protein, UniProt O14862 1-343, looked up, AIM2 (absent-in-melanoma-2), full length, residues 1-343, with Q258A in the HIN200 domain; source: E. coli ER2566, purified (amylose resin, HiTrap-SP, TEV cleavage, gel filtration); not shown: MBP, N-terminal, cleaved) MESKYKEILLLTGLDNITDEELDRFKFFLSDEFNIATGKLHTANRIQVATLMIQNAGAVSAVMKTIRIFQKLNYMLLAKRLQEEKEKVDKQYKSVTKPKPLSQAEMSPAASAAIRNDVAKQRAAPKVSPHVKPEQKQMVAQQESIREGFQKRCLPVMVLKAKKPFTFETQEGKQEMFHATVATEKEFFFVKVFNTLLKDKFIPKRIIIIARYYRHSGFLEVNSASRVLDAESDQKVNVPLNIIRKAGETPKINTLQTAPLGTIVNGLFVVQKVTEKKKNILFDLSDNTGKMEVLGVRNEDTMKCKEGDKVRLTFFTLSKNGEKLQLTSGVHSTIKVIKAKKKT | binds | 
5 | I46D mutant of full-length AIM2 (natural protein, UniProt O14862 1-343, looked up, AIM2 (absent-in-melanoma-2), residues 1-343, mutation in the PYD; Probably with the MBP tag removed as for wild-type AIM2^FL; source: E. coli ER2566, purified) MESKYKEILLLTGLDNITDEELDRFKFFLSDEFNIATGKLHTANRDQVATLMIQNAGAVSAVMKTIRIFQKLNYMLLAKRLQEEKEKVDKQYKSVTKPKPLSQAEMSPAASAAIRNDVAKQRAAPKVSPHVKPEQKQMVAQQESIREGFQKRCLPVMVLKAKKPFTFETQEGKQEMFHATVATEKEFFFVKVFNTLLKDKFIPKRIIIIARYYRHSGFLEVNSASRVLDAESDQKVNVPLNIIRKAGETPKINTLQTQPLGTIVNGLFVVQKVTEKKKNILFDLSDNTGKMEVLGVRNEDTMKCKEGDKVRLTFFTLSKNGEKLQLTSGVHSTIKVIKAKKKT |  | binds
